Molecular target: the molecule itself
Assay: crystal structure; TRAP-RNA crystals, hanging drop, 2:1 molar ratio of TRAP to RNA, 70 mM potassium phosphate pH 7.8, 10 mM L-tryptophan; data collected at 100 K, 1.98 Å; asymmetric unit holds one RNA-bound and one non-RNA-bound TRAP ring

B1: trp RNA-binding attenuation protein (TRAP) from B. stearothermophilus (natural protein)
chain: MYTNSDFVVIKALEDGVNVIGLTRGADTRFHHSEKLDKGEVLIAQFTEHTSAIKVRGKAYIQTRHGVIESEGKK
notes: construct as in Hopcroft et al., 2002 (PDB 1gtf); 11 identical subunits form a ring; also called TRAP ring; source: overexpressed in Escherichia coli and purified; copies: 11
stoichiometry N: 11

Reference: PMC4854314, “RNA protects a nucleoprotein complex against radiation damage” (Acta Crystallographica. Section D, Structural Biology, 2016)
